Results reported in the RNAGym collection of RNA variant scans (doi:10.7554/elife.80360).

B1: Hairpin Ribozyme (parent)
chain: GUCCUCUUUCACGUGCGCGUGAAAGAGAGAAGUGAACCAGAGAAACACACGUUGUGGUAUAUUACCUGGUA

Variants of: B1
Assay: self-cleavage, relative activity (ratio to wild type); higher = more cleavage; co-transcriptional

Question: Which self-cleavage does the source give for GUCCUCUUUCACGUGCGCGUUAACGAGAGAAGUGAACCAGAGAAACACACGUUGUGGUAUAUUACCUGGUA [G21U A24C] here?
Answer: 0.481

Question: For GUCCUCUUUCACGUGCGCGUUAAAGAGAGAAGUGAACCAGAGAAACACGCGUUGUGGUAUAUUACCUGGUA [G21U A49G], which self-cleavage is on record?
Answer: 0.408

Question: For GUCCUCUUUCACGUGCGCGUUAAAGAGAGAAGUGAAACAGAGAAACACACGUUGUGGUAUAUUACCUGGUA [G21U C37A], which self-cleavage is on record?
Answer: 0.267

Question: Which self-cleavage does the source give for GUCCUCUUUCACGUGCGCGUUAAAGAGAGAAGUGAACCCGAGAAACACACGUUGUGGUAUAUUACCUGGUA [G21U A39C] here?
Answer: 0.448

Question: For GUCCUCUUUCACGUGCGCGUUAAAGAGAGAAGUGAACCGGAGAAACACACGUUGUGGUAUAUUACCUGGUA [G21U A39G], which self-cleavage is on record?
Answer: 0.293

Question: With GUCCUCUUUCACGUGCGCGUUAAAGAGAGAAGUGAACCAGAGAAACACACGUUGUGGUAUAUUACCUGGUG [G21U A71G] as the variant, how does the self-cleavage read?
Answer: 0.805

Question: For GUCCUCUUUCACGUGCGCGUUAAAGAGAGAAGUGAACCAGAGAAACACACCUUGUGGUAUAUUACCUGGUA [G21U G51C], which self-cleavage is on record?
Answer: 0.859

Question: Which self-cleavage does the source give for GUCCUCUUUCACGUGCGCGUUAGAGAGAGAAGUGAACCAGAGAAACACACGUUGUGGUAUAUUACCUGGUA [G21U A23G] here?
Answer: 0.772

Question: For GUCCUCUUUCACGUGCGCGUUAUAGAGAGAAGUGAACCAGAGAAACACACGUUGUGGUAUAUUACCUGGUA [G21U A23U], which self-cleavage is on record?
Answer: 0.754

Question: Which self-cleavage does the source give for GUCCUCUUUCACGUGCGCGUUAAAGAGAGAAGUGAACCAGAGAAACACACGUUGUGGUAUAUUACCUAGUA [G21U G68A] here?
Answer: 0.237

Question: With GUCCUCUUUCACGUGCGCGUUAAAGAGAGAAGUGAACCAGAGAAACACACGUUGUGGUAUAUUACCUUGUA [G21U G68U] as the variant, how does the self-cleavage read?
Answer: 0.32

Question: For GUCCUCUUUCACGUGCGCGUUAAAGAGAGAAGUGAACCAGAGAAACGCACGUUGUGGUAUAUUACCUGGUA [G21U A47G], which self-cleavage is on record?
Answer: 0.208

Question: Which self-cleavage does the source give for GUCCUCUUUCACGUGCGCGUUAAAGAGAGAAGUGAACCAGAUAAACACACGUUGUGGUAUAUUACCUGGUA [G21U G42U] here?
Answer: 0.285

Question: For GUCCUCUUUCACGUGCGCGUUAAAGAGAGAAGUGAACCAGAAAAACACACGUUGUGGUAUAUUACCUGGUA [G21U G42A], which self-cleavage is on record?
Answer: 0.158

Question: Which self-cleavage does the source give for GUCCUCUUUCACGUGCGCGUUAAAGAGAGAAGUGAACAAGAGAAACACACGUUGUGGUAUAUUACCUGGUA [G21U C38A] here?
Answer: 0.184

Question: Which self-cleavage does the source give for GUCCUCUUUCACGUGCGCGUUAAAGAGACAAGUGAACCAGAGAAACACACGUUGUGGUAUAUUACCUGGUA [G21U G29C] here?
Answer: 0.224

Question: Which self-cleavage does the source give for GUCCUCUUUCACGUGCGCGUUAAAGAUAGAAGUGAACCAGAGAAACACACGUUGUGGUAUAUUACCUGGUA [G21U G27U] here?
Answer: 0.253

Question: With GUCCUCUUUCACGUGCGCGUUAAAGAGUGAAGUGAACCAGAGAAACACACGUUGUGGUAUAUUACCUGGUA [G21U A28U] as the variant, how does the self-cleavage read?
Answer: 0.688

Question: For GUCCUCUUUCACGUGCGCGUUAAAGAGAGAAGUGAACCAGAGAAACACACGUAGUGGUAUAUUACCUGGUA [G21U U53A], which self-cleavage is on record?
Answer: 0.836

Question: Which self-cleavage does the source give for GUCCUCUUUCACGUGCGCGUUAAAGAGAGAAGUGAACCAGAGGAACACACGUUGUGGUAUAUUACCUGGUA [G21U A43G] here?
Answer: 0.282

Question: Which self-cleavage does the source give for GUCCUCUUUCACGUGCGCGUUAAAGAGAGAAGUGAACCAGAGUAACACACGUUGUGGUAUAUUACCUGGUA [G21U A43U] here?
Answer: 0.129

Question: With GUCCUCUUUCACGUGCGCGUUAAAGAGAGAAGUGAACCAGAGAAACACACGUUGUGGUAUAUUUCCUGGUA [G21U A64U] as the variant, how does the self-cleavage read?
Answer: 0.113

Question: With GUCCUCUUUCACGUGCGCGUUAAAGAGAGAAGUGAACCAGAGAAACACACGUUGUGGUAUAUUGCCUGGUA [G21U A64G] as the variant, how does the self-cleavage read?
Answer: 0.573

Question: Which self-cleavage does the source give for GUCCUCUUUCACGUGCGCGUUAAAAAGAGAAGUGAACCAGAGAAACACACGUUGUGGUAUAUUACCUGGUA [G21U G25A] here?
Answer: 0.252

Question: For GUCCUCUUUCACGUGCGCGUUAAAGAGAGAAGUGAACCAGAGAAACACACGUUGAGGUAUAUUACCUGGUA [G21U U55A], which self-cleavage is on record?
Answer: 0.227

Question: With GUCCUCUUUCACGUGCGCGUUAAAGAGAGUAGUGAACCAGAGAAACACACGUUGUGGUAUAUUACCUGGUA [G21U A30U] as the variant, how does the self-cleavage read?
Answer: 0.142

Question: Which self-cleavage does the source give for GUCCUCUUUCACGUGCGCGUUAAAGAGAGGAGUGAACCAGAGAAACACACGUUGUGGUAUAUUACCUGGUA [G21U A30G] here?
Answer: 0.149

Question: Which self-cleavage does the source give for GUCCUCUUUCACGUGCGCGUUAAAGAGAGAAGUGAACCAGAGAGACACACGUUGUGGUAUAUUACCUGGUA [G21U A44G] here?
Answer: 0.0823

Question: For GUCCUCUUUCACGUGCGCGUUAAAGAGAGAAGUGAACCAGAGACACACACGUUGUGGUAUAUUACCUGGUA [G21U A44C], which self-cleavage is on record?
Answer: 0.117

Question: With GUCCUCUUUCACGUGCGCGUCAAAGAGAGAAGUGAACCAGAGAAACACACGUUGUGGUAUAUUACCGGGUA [G21C U67G] as the variant, how does the self-cleavage read?
Answer: 0.246

Question: For GUCCUCUUUCACGUGCGCGUUAAAGAGAGAAGUAAACCAGAGAAACACACGUUGUGGUAUAUUACCUGGUA [G21U G34A], which self-cleavage is on record?
Answer: 1.01

Question: For GUCCUCUUUCACGUGCGCGUUUAAGAGAGAAGUGAACCAGAGAAACACACGUUGUGGUAUAUUACCUGGUA [G21U A22U], which self-cleavage is on record?
Answer: 0.809

Question: For GUCCUCUUUCACGUGCGCGUUAAAGAGAGAAGUGAACCAGAGAAACACACGUUGUGGUAUCUUACCUGGUA [G21U A61C], which self-cleavage is on record?
Answer: 0.237

Question: For GUCCUCUUUCACGUGCGCGUUAAAGAGAGAAGUGAACCAGAGAAACACACGUUGUGGUGUAUUACCUGGUA [G21U A59G], which self-cleavage is on record?
Answer: 0.0937

Question: For GUCCUCUUUCACGUGCGCGUUAAAGAGAGAAGUGAACCAGAGAAACACACGUUGUGGUCUAUUACCUGGUA [G21U A59C], which self-cleavage is on record?
Answer: 0.148

Question: Which self-cleavage does the source give for GUCCUCUUUCACGUGCGCGUUAAAGAGAGAAGUGAACCAGAGAAACACACGUUGUGGUUUAUUACCUGGUA [G21U A59U] here?
Answer: 0.147

Question: Which self-cleavage does the source give for GUCCUCUUUCACGUGCGCGUUAAAGAGAGAAGUGAACCAGAGAAACACAGGUUGUGGUAUAUUACCUGGUA [G21U C50G] here?
Answer: 0.328

Question: For GUCCUCUUUCACGUGCGCGUUAAAGAGAGAAGUGAACCAGAGAAACACAUGUUGUGGUAUAUUACCUGGUA [G21U C50U], which self-cleavage is on record?
Answer: 0.376
